B1: PCMTD2 (parent)
chain: FFIRTSDSFDKFDFCEPSFVTGNC

Variants of: B1
Assay: protein stability index of a GFP-peptide fusion (GPS, HEK-293T) (PSI 1-6); higher = more stable
Conditions: c terminus: a fixed tail appended
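Note: lentivirally expressed fusions sorted by FACS into six bins by GFP to DsRed ratio, PSI derived from sequencing read proportions per bin multiplied by bin number.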

Protein stability index: each site, then its substitutions
F9: T 1.7; P 1.28; C 2.04; H 2.24; A 1.95; N 2.18; I 2.47; Y 2.82; W 2.6; V 1.75; E 1.9; G 2.53; Q 1.92; L 2.12; S 1.66; R 1.7; D 2.03; M 2.99; K 2.16
S18: A 1.76; T 2.54; V 2.45; R 2.39; F 2.02; L 4.02; N 2.91; P 2.57; W 3.1; Y 2.11; M 3.36; G 2.81; I 2.48; C 3.71; H 3.19; K 3.26; D 2.42; E 2.4
T5: N 1.75; V 3.03; Q 1.78; C 2.77; M 2.69; G 1.92; E 2.14; K 2.38; W 2.53; A 3.25; P 3.1; L 2.48; R 1.82; Y 2.88; I 3.08; F 2.61; S 3.67; H 2.39; D 2.37
S8: M 1.94; F 2.38; N 2.13; P 2.35; C 3.14; T 1.61; L 3.06; Y 3.02; R 2.44; A 2.85; I 2.54; D 1.95; K 1.72; E 1.91; Q 3.03; W 4; V 4.76; H 3.25
V20: N 2.73; L 3.22; G 1.61; H 2.32; M 2.5; A 2.2; P 1.62; I 2.54; Y 1.91; R 2.53; W 2.15; T 2.58; S 2.47; E 2.26; F 3; K 1.86; D 1.76; Q 1.79; C 2.37
G22: K 2.1; N 2.16; C 2.71; M 3.08; L 2.03; I 2.8; T 2.24; Q 2.74; E 2.16; P 3.09; F 1.68; S 2.07; A 2; H 3.63; R 1.87
F12: A 2.4; H 2.07; W 3.92; E 1.92; R 1.77; L 3.58; Q 1.69; N 1.61; M 2.05; G 2.05; V 2.47; P 1.61; T 2.22; I 2.05; Y 2.79; D 1.69; C 2.74; K 1.99; S 1.71
P17: H 3.52; M 2.69; Y 3.1; Q 2.51; S 2.03; W 4.64; N 2.05; V 4.75; G 2.03; T 3.13; A 2.74; I 2.35; L 3.54; D 1.47; E 2.18; F 2.3; C 2.42; K 2
D7: S 3.69; F 3.74; L 2.31; K 1.88; Y 2.41; R 1.98; G 2.55; W 3.44; I 3.18; V 2.77; E 3.48; C 2.8; H 1.69; N 2.56; A 2.62; T 3.2
S6: E 1.99; N 3.26; W 2.61; P 2.53; Q 3.19; M 2.53; F 2.43; I 2.29; A 2.04; Y 2.48; V 2.23; H 2.91; C 1.99; D 3.28; K 2.59; G 2.33; R 3.11; T 3.34
R4: N 1.65; V 2.33; P 1.85; W 4.04; S 2.39; T 3.27; M 4.34; Q 1.74; Y 2.93
D13: V 3.37; R 2.26; T 3.18; C 2.21; F 3.38; I 3.44; E 2.74; Y 1.6; H 2.47; K 2.85; A 2.99; P 2.4; Q 3.23; S 2.57; G 2.78; L 3.27; N 2.42; M 2.65
F19: K 1.95; A 1.69; E 1.67; G 2.16; D 2.11; I 3.34; S 1.66; P 1.92; R 2.21; C 1.49; Y 1.67; T 2.04; H 1.25; W 3.83; L 2.26; Q 1.91; M 1.68; V 2.06; N 1.64
K11: R 3.1; F 3.16; V 3.4; P 2.72; H 2.24; W 3.22; E 2.95; C 2.65; L 2.42; Q 3.58; N 2.42; Y 3.27; D 2.86; M 4.28; I 3.4; A 2.13; T 2.84; S 3.53; G 2.57
F14: W 2.71; C 2.76; G 1.82; K 1.99; I 2.31; E 2; L 1.91; R 2.37; Q 1.89; A 2.31; P 2.55; M 2.1; S 1.84; T 2.5; Y 2.92; N 2.27; H 1.94; V 2.05; D 2.42
T21: E 2.4; V 3.86; G 3.28; N 2.27; S 2.18; A 2.61; D 1.71; I 2.9; L 3.84; P 3.61; F 3.34; H 1.47; Y 2.49; M 3.19; Q 2.22; W 2.76; K 2.3
C15: S 2.04; L 3.34; W 2.31; M 1.98; I 3.14; R 2.15; P 3.43; Q 3.22; V 2.05; K 2.43; F 3.17; Y 3.03; A 2.24; T 2.3; H 2.62; D 2.14; G 3.49; E 2.06; N 2.98
E16: G 2.2; Y 3.4; M 3.1; S 2.04; D 2.87; C 2.5; K 3.41; N 2.95; R 2.11; V 2.9; P 1.87; H 3.4; I 2.85; W 3.77; F 2.04; A 2.25; Q 2.02
D10: W 3.23; P 2.94; G 2.61; H 2.83; V 3.82; L 2.67; C 3.08; F 3.53; I 2.31; R 2.56; A 2.7; Q 2.54; M 3.52; K 3.06; S 2.22; N 2.72; E 2.27; T 2.81
